The values below come from patent US20050176123A1, “Protease inhibitor” (Morinaga Milk Industry Co., Ltd., priority 2002, published 2005).

Assay in all cases: cysteine protease inhibitory activity (Z-Phe-Arg-MCA fluorescence, method of Barrett et al.)
Common to all, as to assay type: biochemical

One assay has as its target T1, cathepsin B (Homo sapiens, UniProt P07858).
T1 construct: purchased Wako Pure Chemical Industries, Ltd
As for the experimental part:
(§1) Inhibitory activities against cysteine proteases including papain, cathepsin B, cathepsin L and cathepsin S (these proteases are available from Wako Pure Chemical Industries, Ltd.) were determined using commercially available bovine lactoferrin (manufactured by Morinaga Milk Industry Co., Ltd.) as a test sample. The inhibitory activity was measured with reference to the method by Barrett et al. (“Methods in Enzymology,” Vol. 80, p 535-561, 1981) as described below. Namely, Z-Phe-Arg-MCA (final concentration of […]: manufactured by Peptide Institute, Inc.) was added as a substrate to 0.1 M acetic acid buffer solution (pH 5.5) in which sample was dissolved at each concentration. Then, cysteine protease (a protease selected from papain, cathepsin B, cathepsin L and cathepsin S in the present test: manufactured by Wako Pure Chemical Industries, Ltd.) solution (final concentration: 15 units/ml) was added, the whole solution was mixed and the reaction was carried out at 37° C. for 10 minutes. Subsequently, fluorescence intensity (excitation wavelength: 370 nm, emission wavelength: 460 nm) of AMC (7-Amino-4-Methyl-Coumarin) released from the digested substrate was measured with a fluorescence spectrometer (manufactured by Hitachi, Ltd.).

The next assay has as its target T2, cathepsin L (Homo sapiens, UniProt P07711).
T2 construct: purchased Wako Pure Chemical Industries, Ltd
As for the experimental part: as §1

The target of a further assay is T3, papain (Carica papaya, UniProt P00784).
T3 construct: purchased Wako Pure Chemical Industries, Ltd
T3 sequence (P00784 134-345): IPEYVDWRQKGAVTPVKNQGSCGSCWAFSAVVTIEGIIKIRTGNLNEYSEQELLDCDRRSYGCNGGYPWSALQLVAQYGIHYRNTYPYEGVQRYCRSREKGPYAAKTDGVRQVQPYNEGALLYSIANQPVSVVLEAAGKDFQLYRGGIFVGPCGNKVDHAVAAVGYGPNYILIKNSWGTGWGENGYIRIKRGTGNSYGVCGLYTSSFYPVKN
To be noted: pH 5.5, 37° C., 10 minutes. As for the experimental part:
as §1

Where [1] appears, read: inhibitor 10^−3 M, pH 5.5, 37° C., 10 minutes.

T2 sequence (P07711 114-333, species assumed): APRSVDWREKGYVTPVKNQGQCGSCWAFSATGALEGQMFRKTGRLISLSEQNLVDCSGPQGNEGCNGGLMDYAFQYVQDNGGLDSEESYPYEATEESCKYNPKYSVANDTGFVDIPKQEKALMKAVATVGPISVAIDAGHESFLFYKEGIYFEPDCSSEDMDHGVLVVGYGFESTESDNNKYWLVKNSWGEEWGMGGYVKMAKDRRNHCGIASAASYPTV

Consider “bovine lactoferrin peptide Y676-K692: peptide having amino acid numbers 676-692 of SEQ ID No. 2 (bovine lactoferrin), chemically synthesized (YEEYLGTEYVTAIANLK; sig_peptide (1)...(19) Lactoferrin; listed as Bos taurus)”, for which the “cysteine protease-inhibitory activity compared with human lactoferrin peptide Y679-K695” value with cathepsin B (similar test to Test Example 5) and in the assay with cathepsin L (similar test to Test Example 5) was “almost equal to the human lactoferrin peptide Y679-K695” in each case.

Take “human lactoferrin peptide Y679-K695: peptide having amino acid numbers 679-695 of SEQ ID No. 1 (human lactoferrin), chemically synthesized (YEKYLGPQYVAGITNLK; sig_peptide (1)...(19) Lactoferrin; listed as Homo Sapiens)”: the “inhibition of cysteine protease activity” value was about 60% with cathepsin B (setting [1]), “almost completely inhibited” in the assay with cathepsin L (setting [1]) and “almost completely inhibited” in the assay with papain (inhibitor 10^−3 M). For the same substance, the “inhibition rate at each concentration (%)” value is “more than 50%” in the assay with cathepsin L (inhibitor 10^−4M, pH 5.5, 37° C., 10 minutes) and “more than 50%” with papain (inhibitor 10^−4M).
